Reference: patent US20040052799A1, “Nucleic acid and amino acid sequences relating to Helicobacter pylori for diagnostics and therapeutics” (Astra Aktiebolag, priority 1996, published 2004)

Tests used:
[1] = substrate: N[C@@H](CC=O)C(=O)O; assay: Asd assay, reverse reaction, NADPH formation; type: biochemical, E. coli; conditions: other: pH 7.5
[2] = substrate: N[C@H](CCC(=O)O)C(=O)O; assay: Glutamate racemase activity, conversion of D-glutamate to L-glutamate (two enzyme and single enzyme coupled assays); type: biochemical, H. pylori; conditions: other: purified recombinant enzyme; 37.0 °C
Description: The activity of glutamate racemase, interconversion of the enantiomers of glutamic acid, was measured using D-glutamic acid as substrate. The method of Gallo and Knowles (Gallo, K. A. and Knowles, J. R., 1993, Biochmistry 32, 3981-3990) that was used to measure the glutamate racemase activity of Lactobacillus fermenti was adapted for the measurement of glutamate racemase activity of the H. pylori murI gene product isolated as a recombinant protein from E. coli. […] Initial rates were determined by following the increase in absorbance at 500 nm in a reaction volume of 200 μl containing 50 mM Tris-HCl, pH 7.8, 4% v/v glycerol, 10 mM NAD, 2 mM INT, 60 Units/ml L-glutamate dehydrogenase, 5 Units/ml diaphorase, and varying concentrations of either substrate (from 0.063 mM to 250 mM D-glutamic acid) or purified enzyme (from 1 μg to 50 μg). After a preincubation of all reagents except either the substrate (D-glutamic acid) or the enzyme (murI gene product) for a period of 5 minutes, reactions were initiated by adding the missing ingredient (i.e., the enzyme or the subtrate, as required), and the increase in optical density at 500 nm was measured in a Microplate Spectophotometer System (Molecular Devices, Spectra MAX 250). Measurements were followed for 20 minutes, and initial velocities were derived by calculating the maximum slope for the absorbance increases. […]

Row | Protein | Km [1] [µM] | Km [2] [µM]
1 | E. coli Asd (Escherichia coli K-12) (protein, made in house; host or cells: E. coli HMS174 pLysS, pET28b) MKNVGFIGWRGMVGSVLMQRMVEERDFDAIRPVFFSTSQLGQAAPSFGGTTGTLQDAFDLEALKALDIIVTCQGGDYTNEIYPKLRESGWQGYWIDAASSLRMKDDAIIILDPVNQDVITDGLNNGIRTFVGGNCTVSLMLMSLGGLFANDLVDWVSVATYQAASGGGARHMRELLTQMGHLYGHVADELATPSSAILDIERKVTTLTRSGELPVDNFGVPLAGSLIPWIDKQLDNGQSREEWKGQAETNKILNTSSVIPVDGLCVRVGALRCHSQAFTIKLKKDVSIPTVEELLAAHNPWAKVVPNDREITMRELTPAAVTGTLTTPVGRLRKLNMGPEFLSAFTVGDQLLWGAAEPLRRMLRQLA | 104 | 
2 | H. pylori glutamate racemase (murI gene product) (Helicobacter pylori J99) (protein, made in house; host or cells: E. coli BL21(DE3) carrying pET-23-murI and pACYC-groE (GroES/GroEL co-expressed)) MKIGVFDSGVGGFSVLKSLLKARLFDEIIYYGDSARVPYGTKDPTTIKQFGLEALDFFKPHEIELLIVACNTASALALEEMQKYSKIPIVGVIEPSILAIKRQVEDKNAPILVLGTKATIQSNAYDNALKQQGYLNISHLATSLFVPLIEESILEGELLETCMHYYFTPLEILPEVIILGCTHFPLIAQKIEGYFMGHFALPTPPLLIHSGDAIVEYLQQKYALKNNACTFPKVEFHASGDVIWLERQAKEWLKL |  | 100
